Source: the nanobody polyreactivity screen of Harvey et al. (2022)

Experiment: yeast display, Sf9 membrane polyspecificity reagent, FACS + sequencing; frameworks hold sequencing errors
Method in brief: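 Nanobodies came from a synthetic yeast display library in Saccharomyces cerevisiae BJ5465, induced with galactose for 36–48 hours and stained for 1 hour at 4 °C with 10% biotinylated, detergent-solubilized Sf9 membrane reagent. Cells were enriched on streptavidin microbeads and then FACS-sorted, with low and high (top ~1%) gates set on anti-HA fluorescence for expression and streptavidin fluorescence for reagent binding. Each polyreactivity label reflects the gate a clone came from. Genes were amplified by colony PCR, sequenced by MiSeq 2 × 250 and filtered by CDR length.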

Row | Sequence | polyreactivity (PSR sort gate)
1 | QVQLVESGGGLVQAGGSLRLSCAASGGTFWIYAMGWYRKAPGKERELVAGITTSGATTYYADSVKGRFTISRDNAKNTVYLQMNSLKPEDTAVYYCAADEYYRYEYWGQGTQVTVSS | low polyreactivity
2 | QVQLVESGGGLVQAGGSLRLSCAASGGTFWYNAMGWYRQAPGKERELVANIRRSGDSTYYADSVKARFTISRDNAKNTVYLQMNSLKPEDTAVYYCAVSYTTYYHRYYYWGQGTQVTVSS | high polyreactivity
3 | QVQLVESGGGLVQAGGSLRLSCAASGGTFYGNAMGWYRQAPGKERELVAGITDDSSTYYADSVKGRFTISRDNAKNTVYLQMNSLKPEDTAVYYCAKDLSWYYLPEVYYWGQGTQVTVSS | low polyreactivity
4 | QVQLVESGGGLVQAGGSLRLSCAASGGTFYGYAAMGWYRQAPGKERELVAAISRSGGRTYYADSVKGRFTISRDNAKNTVYLQMNSLKPEDTAVYYCAARRAYSRPPRDYWGQCTQVTVSS | high polyreactivity
5 | QVQLVESGGGLVQAGGSLRLSCAASGGTFYRYAMGWYRQAPGKERELVAAITSGSSTYYADSVKGRFTISRDNAKNTVYLQMNSLKPEDTAVYYCAAARYSRLSRTRPGKYGYWGQGTQVTVSS | low polyreactivity
6 | QVQLVESGGGLVQAGGSLRLSCAASGGTFYVNAMGLYRQAPGKERELVAGIRESGASTYYADSVKGRFTISRDNAKNTVYFQMNSLQPEDTAVYYCAVDGPYPAASQSEVGYDYWGQGTQVTVSS | low polyreactivity
7 | QVQLVESGGGLVQAGGSLRLSCAASGGTFYYYAMGWSRQAPGKERELVAAISWSGVSTSYADSVKGRFTISRDNANNTVYLQMNSLKPEDTAVYYCAAGPFYYTGYEGVYWGQGTQVTVSS | high polyreactivity
8 | QVQLVESGGGLVQAGGSLRLSCAASGGTFYYYAMGWYRQAPGKEREFVAAITWTGGRTYYADSVKGRFTISRDNAKNTVYLQMNSLKPEDTAVYYCAASDRYGGRDYWGQGTQVTVSS | high polyreactivity
9 | QVQLVESGGGLVQAGGSLRLSCAASGGTIDRYAMGWYRQAPGKERELVAAITKSGDRTYYADSVKGRFTISRDNAKNTVYLQMNSLKPEDTAVYYCAAAYSGLRRQNGFNYWGQGTQVTVSS | high polyreactivity
10 | QVQLVESGGGLVQAGGSLRLSCAASGGTIGYNAMGWYRQAPGKERELVAAISWSGGTTYYADSVKGRFTISRDNAKNTVYLQMNSLKPEDTAVYYCNVYSRGRDDWGQGTQVTVSS | high polyreactivity
11 | QVQLVESGGGLVQAGGSLRLSCAASGGTIVPNAMGWYRQAPGTERELVATLTSSDTTNYADSVKGRFTISRDNAKNTVYLQMNSLKPEDTAVYYSAASFKLGYWDYYYWGQGTQVTVSS | low polyreactivity
12 | QVQLVESGGGLVQAGGSLRLSCAASGGTIYGYAAMGWYRQAPGKERELVAAISRSGGRTYYADSVKGRFTISRDNAKNTVYLQMNSRKPEDTAVYYCAARRAYSRPPRDYWGQCTQVTVSS | high polyreactivity
13 | QVQLVESGGGLVQAGGSLRLSCAASGGTLDYNAMGWYRQAPGKERELVAGITSGGGTYYADSVKGRFTISRDNAKNTVYLQMNSVKPEDTAVYYCAARPWRSRYYGGLGRRFDYWGQGTQVTVSS | high polyreactivity
14 | QVQLVESGGGLVQAGGSLRLSCAASGGTLQGNAMGWYRQAPGKERELVAAISSRGGRTYYADSVKGRFTISRDNAKNTVYLQMNSLKPEDTAVYYCAAVQNGDSTLLRTKGGYWGQGTQVTVSS | high polyreactivity
15 | QVQLVESGGGLVQAGGSLRLSCAASGGTLQGNAMGWYRQAPGKERELVAAISSRGGRTYYADSVKGRFTISRDNANNTVYLQMNSLKPEDTAVYYCAAVQKGDSTLLRTKGGYWGQGTQVTVSS | high polyreactivity
16 | QVQLVESGGGLVQAGGSLRLSCAASGGTLRRYAMGWYRQAPGKERELVAGITSGGSTDYADSVKGRFTISRDNAKNTVYLQMNSLKPEDTAVYYCAALVYRPTYGYIFDYWGQGTQVTVSS | high polyreactivity
